Measurements as given in patent US20110110945A1, “Immunoglobulin Fusion Proteins and Methods of Making” (TransTech Pharma, Inc., priority 2007, published 2011).
Entries after “also recorded” stand apart in the source; their conditions may differ.

What was measured:
S100b = target: T1, S100b (Homo sapiens, UniProt P04271); experiment: In vitro ligand binding assay (ELISA), immobilized S100b; details: ligand 5 micrograms per well; dilutions of initial fusion protein solution; FIG. 7
T1 sequence (P04271 1-92): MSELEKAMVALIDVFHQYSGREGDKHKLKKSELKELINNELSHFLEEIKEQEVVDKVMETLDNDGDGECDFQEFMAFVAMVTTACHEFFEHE
Method: (§1) For example, the fusion protein may be used in a binding assay to identify potential ligands that bind to the non-immunoglobulin protein. In one example embodiment of such a binding assay, a known ligand may coated onto a solid substrate (e.g., Maxisorb plates) at a biologically relevant concentration (e.g., about 5 micrograms per well), where each well contains a total volume of about 100 microliters (μL). The plates may be incubated at 4° C. overnight to allow the ligand to bind to the substrate. Alternatively, shorter incubation periods at higher temperature (e.g., room temperature) may be used. After a period of time to allow for the ligand to bind to the substrate, the assay wells may be aspirated and a blocking buffer (e.g., 1% BSA in 50 mM imidizole buffer, pH 7.2) may be added to block nonspecific binding. […] The fusion protein bound to the immobilized ligand may be detected in a variety of ways. […] The bound complex may be detected by adding a substrate for the secondary antibody complex, e.g., the alkaline phosphatase substrate, para-nitrophenylphosphate (PNPP), and measuring conversion of PNPP to para-nitrophenol (PNP) as an increase in absorbance at 405 nm. […] In the absence of ligand (i.e., coating with only BSA) there was no increase in absorbance. The binding assay of the present invention may be used to quantify ligand binding. […]

amphoterin = target: T2, amphoterin (Homo sapiens, UniProt P09429); experiment: In vitro ligand binding assay (ELISA), immobilized amphoterin; details: ligand 5 micrograms per well; dilutions of initial fusion protein solution; FIG. 7
T2 sequence (P09429 1-215): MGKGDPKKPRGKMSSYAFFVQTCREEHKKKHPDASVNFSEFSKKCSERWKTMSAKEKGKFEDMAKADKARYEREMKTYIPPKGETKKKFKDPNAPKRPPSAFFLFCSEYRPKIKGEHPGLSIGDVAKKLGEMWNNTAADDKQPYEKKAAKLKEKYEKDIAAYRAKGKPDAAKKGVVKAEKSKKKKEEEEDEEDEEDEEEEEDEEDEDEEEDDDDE
Method: as §1

[1] = system: Zucker diabetic rats, balloon injury of left common carotid artery; experiment: Diabetic rat model of restenosis (balloon injury of left common carotid artery); assay type: in vivo; details: for Intimal area / Medial area: IP, 21 days, mean±SD
Method: For example, fusion proteins of the present invention comprising a RAGE ligand binding site have been used in the treatment of diabetes related pathology. […] Use of the RAGE fusion proteins in the treatment of diabetes related pathology is illustrated in Table 1.
In these experiments, balloon injury of left common carotid artery was performed in Zucker diabetic and nondiabetic rats using standard procedure. […] A maintenance dose was delivered every other day until day 7 after injury (i.e., at day 1, 3, 5 and 7 after injury). The maintenance dose was high=1 mg/animal for one group, or low=0.3 mg/animal for the second group. To measure vascular smooth muscle cell (VSMC) proliferation, animals were sacrificed at 4 days and 21 days after injury.
For the measurement of cell proliferation, 4 day animals received intraperitoneal injection of bromodeoxyuridine (BrDdU) 50 mg/kg at 18, 12, and 2 hours before euthanasia. After sacrifice, the entire left and right carotid arteries were harvested. Specimens were stored in Histochoice for at least 24 hours before embedding. Assessment of VSMC proliferation was performed using mouse anti-BrdU monoclonal antibody. A fluorescence labeled goat anti-mouse secondary antibody was applied. The number of BrdU-positive nuclei per section were counted by two observers blinded to the treatment regimens.
The remaining rats were sacrificed at 21 days for morphometric analysis. Morphometric analyses were performed by an observer blinded to the study groups, using computerized digital microscopic planimetry software Image-Pro Plus on serial sections, ([…]) carotid arteries stained by Van Gieson staining All data were expressed as mean±SD. Statistical analysis was performed with use of SPSS software. Continuous variables were compared using unpaired t tests. A values of P≦0.05 was considered to be statistically significant.

mice that have AD = experiment: Mice that have Alzheimer's Disease, treated for 3 months; assay type: in vivo; details: versus vehicle or human IgG negative control (IgG1)
Source text: Also, fusion proteins of the present invention comprising a RAGE ligand binding site may also be used to treat reduce amyloidosis and to reduce amyloid plaques and cognitive dysfunction associated with Alzheimer's Disease (AD).

[2] = system: male C57BL/6 mice, cerebral ischemia/reperfusion; experiment: Animal model of stroke (ischemia and reperfusion, infarct volume); assay type: in vivo; details: mouse stroke model
Method: In this model, the middle carotid artery of a mouse is ligated and then reperfused to form an infarct.
In this model, the middle carotid artery of a mouse was ligated for 1 hour followed by 23 hours of reperfusion at which point the mice were sacrificed and the area of the infarct in the brain was assessed.
Mice were injected intraperitoneally, 1 hour after the initiation of ischemia. Mice were subjected to one hour of cerebral ischemia followed by 24 hours of reperfusion. To induce ischemia, each mouse was anesthetized and body temperature was maintained at 36-37° C. by external warming. The left common carotid artery (CCA) was exposed through a midline incision in the neck. […] After the nylon suture had been in place for 1 hour, the animal was re-anesthetized, rectal temperature was recorded and the suture was removed and the incision closed.
Infarct volume was determined by anesthetizing the animals with an intraperitoneal injection of sodium pentobarbital (50 mg/kg) and then removing the brains. […] The infarct area in each section was determined with a computer-assisted image analysis system, consisting of a Power Macintosh computer equipped with a Quick Capture frame grabber card, Hitachi CCD camera mounted on a camera stand. […] The images were captured and the total area of infarct was determined over the sections. […] The results are expressed as the mean±standard deviation (SD). […]

Fc receptor = Fc receptor activation: TNF-α secretion from THP-1 cells; details: well precoated with 10 ug/well heat aggregated protein, 24 hours, FIG. 12
Method: Fc receptor activation was measured by measuring TNF-α secretion from THP-1 cells that express the Fc receptor. […] Fc stimulation results in TNF-α secretion. The amount of TNF-α was measured by an Enzyme Linked Immunoabsorbent Assay (ELISA).
Thus, in this assay, the myeloid cell line, THP-1 (ATTC #TIB-202) was maintained in RPMI-1640 media supplemented with 10% fetal bovine serum per ATCC instructions. […] The amount of TNF-alpha secreted by the THP-1 cells was measured in supernatants collected from 24 hours cultures of cells in the treated wells using a commercially available TNF ELISA kit (R&D Systems, Minneapolis, Minn. #DTA00C) per instructions.

[3] = High dose 1.0 mg/animal qod × 4, loading dose 3 mg/animal
[4] = Low dose 0.3 mg/animal qod × 4, loading dose 3 mg/animal

B1: TTP-4000: RAGE fusion protein: V and C1 domains of human RAGE (amino acids 1-251) linked to hinge-less CH2 and CH3 of human IgG1; SEQ ID NO: 16/18 (protein)
chain 1: MAAGTAVGAWVLVLSLWGAVVGAQNITARIGEPLVLKCKGAPKKPPQRLEWKLNTGRTEAWKVLSPQGGGPWDSVARVLPNGSLFLPAVGIQDEGIFRCQAMNRNGKETKSNYRVRVYQIPGKPEIVDSASELTAGVPNKVGTCVSEGSYPAGTLSWHLDGKPLVPNEKGVSVKEQTRRHPETGLFTLQSELMVTPARGGDPRPTFSCSFSPGLPRHRALRTAPIQPRVWEPVPLEEVQLVVEPEGGAVAPPSVFLFPPKPKDTLMISRTPEVTCVVVDVSHEDPEVKFNWYVDGVEVHNAKTKPREEQYNSTYRVVSVLTVLHQDWLNGKEYKCKVSNKALPAPIEKTISKAKGQPREPQVYTLPPSRDELTKNQVSLTCLVKGFYPSDIAVEWESNGQPENNYKTTPPVLDSDGSFFLYSKLTVDKSRWQQGNVFSCSVMHEALHNHYTQKSLSLSPGK
chain 2: ENITARIGEPLVLKCKGAPKKPPQRLEWKLNTGRTEAWKVLSPQGGGPWDSVARVLPNGSLFLPAVGIQDEGIFRCQAMNRNGKETKSNYRVRVYQIPGKPEIVDSASELTAGVPNKVGTCVSEGSYPAGTLSWHLDGKPLVPNEKGVSVKEQTRRHPETGLFTLQSELMVTPARGGDPRPTFSCSFSPGLPRHRALRTAPIQPRVWEPVPLEEVQLVVEPEGGAVAPPSVFLFPPKPKDTLMISRTPEVTCVVVDVSHEDPEVKFNWYVDGVEVHNAKTKPREEQYNSTYRVVSVLTVLHQDWLNGKEYKCKVSNKALPAPIEKTISKAKGQPREPQVYTLPPSRDELTKNQVSLTCLVKGFYPSDIAVEWESNGQPENNYKTTPPVLDSDGSFFLYSKLTVDKSRWQQGNVFSCSVMHEALHNHYTQKSLSLSPGK
modifications: synthetic four domain RAGE-Fc IgG fusion protein; synthetic four domain RAGE-Fc IgG fusion protein having signal sequence removed
binding to immobilized S100b (increase in absorbance at 405 nm) (S100b): able to bind; also recorded: specifically interact
binding to immobilized amphoterin (increase in absorbance at 405 nm) (amphoterin): able to bind; also recorded: specifically interact
vascular smooth muscle cell proliferation (BrdU-positive nuclei), in words ([1]; 4 days after injury, dose-responsive): significantly reduced
Intimal area [1, 3]: 0.16 ± 0.02 mm^2
Medial area [1, 3]: 0.11 ± 0.01 mm^2
Intimal area [1, 4]: 0.18 ± 0.04 mm^2
Medial area [1, 4]: 0.11 ± 0.02 mm^2
amyloid beta (Aβ) plaques (mice that have AD): fewer amyloid beta (Aβ) plaques
cognitive dysfunction (mice that have AD): less cognitive dysfunction
reduction in infarct volume / area of infarct compared to sRAGE, in words [2]: significantly greater reduction in infarct volume; also recorded: more efficacious than sRAGE
TNF generated (Fc receptor activation) (Fc receptor): less than 2 ng/well
